Results published in patent US20140274782A1, “AFFINITY REAGENTS AND METHODS FOR DETECTION, PURIFICATION, AND PROTEOMIC ANALYSIS OF METHYLATED PROTEINS” (The Board of Trustees of the Leland Stanford Junior …, priority 2013, published 2014).

T1: G9a and GLP (Homo sapiens, UniProt Q96KQ7+Q9H9B1)
T1 sequence (Q96KQ7 2-1210 limits assumed): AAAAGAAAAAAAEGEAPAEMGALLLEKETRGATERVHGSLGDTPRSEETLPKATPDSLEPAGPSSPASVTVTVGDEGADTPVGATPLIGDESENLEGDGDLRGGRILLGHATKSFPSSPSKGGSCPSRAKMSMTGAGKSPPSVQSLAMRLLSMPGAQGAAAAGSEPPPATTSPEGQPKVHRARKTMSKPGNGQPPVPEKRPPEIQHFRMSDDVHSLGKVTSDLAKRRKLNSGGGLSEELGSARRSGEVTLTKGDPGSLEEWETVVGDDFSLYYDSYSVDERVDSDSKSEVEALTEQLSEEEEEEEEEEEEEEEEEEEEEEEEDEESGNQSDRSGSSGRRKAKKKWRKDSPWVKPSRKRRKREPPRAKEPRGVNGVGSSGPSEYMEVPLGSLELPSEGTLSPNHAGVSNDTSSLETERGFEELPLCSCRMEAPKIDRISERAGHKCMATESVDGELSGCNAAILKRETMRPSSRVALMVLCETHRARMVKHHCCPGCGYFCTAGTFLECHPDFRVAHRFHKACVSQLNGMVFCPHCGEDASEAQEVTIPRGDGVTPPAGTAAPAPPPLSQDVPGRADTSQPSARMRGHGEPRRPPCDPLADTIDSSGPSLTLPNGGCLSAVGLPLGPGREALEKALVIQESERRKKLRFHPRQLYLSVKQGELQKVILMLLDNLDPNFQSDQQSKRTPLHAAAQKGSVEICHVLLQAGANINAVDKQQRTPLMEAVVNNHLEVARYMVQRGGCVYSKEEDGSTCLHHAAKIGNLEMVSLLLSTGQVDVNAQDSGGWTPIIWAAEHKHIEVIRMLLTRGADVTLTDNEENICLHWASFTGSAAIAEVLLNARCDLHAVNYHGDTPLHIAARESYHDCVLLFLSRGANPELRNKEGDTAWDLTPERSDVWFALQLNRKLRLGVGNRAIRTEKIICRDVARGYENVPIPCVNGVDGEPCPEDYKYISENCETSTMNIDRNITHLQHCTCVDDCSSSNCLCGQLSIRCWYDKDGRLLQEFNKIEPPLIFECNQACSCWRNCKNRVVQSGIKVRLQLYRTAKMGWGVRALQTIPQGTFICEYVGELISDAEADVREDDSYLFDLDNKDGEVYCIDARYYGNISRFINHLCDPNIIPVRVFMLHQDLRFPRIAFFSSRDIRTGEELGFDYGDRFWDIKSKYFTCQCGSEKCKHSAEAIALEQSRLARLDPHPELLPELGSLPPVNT
T1 sequence (Q9H9B1 2-1298 limits assumed): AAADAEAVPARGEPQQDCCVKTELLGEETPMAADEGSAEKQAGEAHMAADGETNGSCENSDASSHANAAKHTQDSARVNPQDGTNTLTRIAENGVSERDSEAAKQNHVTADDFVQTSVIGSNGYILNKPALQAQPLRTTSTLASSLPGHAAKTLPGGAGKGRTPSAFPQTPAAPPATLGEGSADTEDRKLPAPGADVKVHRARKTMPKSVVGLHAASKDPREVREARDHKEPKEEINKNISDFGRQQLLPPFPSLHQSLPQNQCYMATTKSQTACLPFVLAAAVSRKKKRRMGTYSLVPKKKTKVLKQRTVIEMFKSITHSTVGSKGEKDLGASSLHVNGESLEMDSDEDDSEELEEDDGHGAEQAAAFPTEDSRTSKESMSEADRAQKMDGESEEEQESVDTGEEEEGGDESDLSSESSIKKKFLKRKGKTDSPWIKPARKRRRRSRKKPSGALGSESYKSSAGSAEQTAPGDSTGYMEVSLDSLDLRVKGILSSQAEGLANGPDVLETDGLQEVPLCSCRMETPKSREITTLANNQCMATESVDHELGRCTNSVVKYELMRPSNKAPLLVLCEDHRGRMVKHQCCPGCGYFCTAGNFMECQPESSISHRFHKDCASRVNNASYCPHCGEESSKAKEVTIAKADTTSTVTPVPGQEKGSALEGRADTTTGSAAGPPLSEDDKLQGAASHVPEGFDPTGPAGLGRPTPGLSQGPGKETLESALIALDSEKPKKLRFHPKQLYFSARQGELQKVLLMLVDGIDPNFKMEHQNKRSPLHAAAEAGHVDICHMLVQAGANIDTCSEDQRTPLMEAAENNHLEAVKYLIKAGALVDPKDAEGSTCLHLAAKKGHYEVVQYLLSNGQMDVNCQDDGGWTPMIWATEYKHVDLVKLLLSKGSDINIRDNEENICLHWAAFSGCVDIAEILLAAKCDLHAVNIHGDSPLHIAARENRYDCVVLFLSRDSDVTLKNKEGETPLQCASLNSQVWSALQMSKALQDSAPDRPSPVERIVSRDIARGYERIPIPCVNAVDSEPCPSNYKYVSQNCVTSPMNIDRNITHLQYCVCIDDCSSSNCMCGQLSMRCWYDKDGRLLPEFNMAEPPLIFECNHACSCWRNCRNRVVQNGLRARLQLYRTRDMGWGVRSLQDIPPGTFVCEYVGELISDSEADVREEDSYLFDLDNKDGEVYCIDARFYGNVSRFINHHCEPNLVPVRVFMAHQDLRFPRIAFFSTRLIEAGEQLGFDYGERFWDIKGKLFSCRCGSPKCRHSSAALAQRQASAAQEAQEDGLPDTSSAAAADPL


Key:
3×MBT domain of L3MBTL1 = test: Triple SILAC pull-down, 3xMBT/3xMBTD355N ratio (cytoplasmic, nuclear and chromatin fractions of 293T cells); assay type: binding, human; details: SILAC ratio, pull-down 3xMBT vs 3xMBTD355N; for 3xMBT/D355N UNC Heavy: experiment with UNC0638 in heavy SILAC media; for 3xMBT/D355N UNC Light: experiment with UNC0638 in light SILAC media;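 as to all read-outs here: proteins quantified with MaxQuant, requiring at least two unique peptides and quantification in both label directions, normalized to the mean of proteins from a digested loading control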
G9a and GLP = molecular target: T1, G9a and GLP; test: Triple SILAC pull-down after UNC0638 treatment of 293T cells, DMSO/UNC0638 ratio of protein captured by 3×MBT; assay type: cell-based; design: cells were treated for 24 hours with UNC0638 at 2.5 μM or DMSO vehicle control; endogenous in cells; host or cells: HEK 293T; details: for Relative to UNC0638 UNC Heavy / Relative to UNC0638 UNC Light: SILAC ratio DMSO/UNC0638 of protein pulled down with 3xMBT; for Relative to UNC0638 UNC Heavy: UNC0638 in heavy SILAC media; for Relative to UNC0638 UNC Light: UNC0638 in light SILAC media; for Relative to UNC0638 Average: average of UNC Light and UNC Heavy experiments;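 as to all read-outs here: mass spectrometry (Q-Exactive) SILAC quantitation, DMSO/UNC0638 ratio computed after subtracting 3×MBTD355N mutant pull-down background, only proteins with at least twofold 3×MBT over mutant signal considered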

Relative to UNC0638 UNC Heavy (G9a and GLP) [log base 2] | Relative to UNC0638 UNC Light (G9a and GLP) [log base 2] | Relative to UNC0638 Average (G9a and GLP) [log base 2] | Molecule | 3xMBT/D355N UNC Heavy (3×MBT domain of L3MBTL1) [log base 2] | 3xMBT/D355N UNC Light (3×MBT domain of L3MBTL1) [log base 2]
0.29 | −0.01 | 0.14 | ALKBH5 (protein, UniProt Q6P6C2 2-394, looked up) RNA demethylase ALKBH5: AAASGYTDLREKLKSMTSRDNYKAGSREAAAAAAAAVAAAAAAAAAAEPYPVSGAKRKYQEDSDPERSDYEEQQLQKEEEARKVKSGIRQMRLFSQDECAKIEARIDEVVSRAEKGLYNEHTVDRAPLRNKYFFGEGYTYGAQLQKRGPGQERLYPPGDVDEIPEWVHQLVIQKLVEHRVIPEGFVNSAVINDYQPGGCIVSHVDPIHIFERPIVSVSFFSDSALCFGCKFQFKPIRVSEPVLSLPVRRGSVTVLSGYAADEITHCIRPQDIKERRAVIILRKTRLDAPRLETKSLSSSVLPPSYASDRLSGNNRDPALKPKRSHRKADPDAAHRPRILEMDKEENRRSVLLPTHRRRGSFSSENYWRKSYESSEDCSEAAGSPARKVKMRRH | 1.96 | 1.73
−0.10 | 0.38 | 0.14 | TCOF1 (protein, UniProt Q13428 1-1488, looked up) Treacle protein: MAEARKRRELLPLIYHHLLRAGYVRAAREVKEQSGQKCFLAQPVTLLDIYTHWQQTSELGRKRKAEEDAALQAKKTRVSDPISTSESSEEEEEAEAETAKATPRLASTNSSVLGADLPSSMKEKAKAETEKAGKTGNSMPHPATGKTVANLLSGKSPRKSAEPSANTTLVSETEEEGSVPAFGAAAKPGMVSAGQADSSSEDTSSSSDETDVEGKPSVKPAQVKASSVSTKESPARKAAPAPGKVGDVTPQVKGGALPPAKRAKKPEEESESSEEGSESEEEAPAGTRSQVKASEKILQVRAASAPAKGTPGKGATPAPPGKAGAVASQTKAGKPEEDSESSSEESSDSEEETPAAKALLQAKASGKTSQVGAASAPAKESPRKGAAPAPPGKTGPAVAKAQAGKREEDSQSSSEESDSEEEAPAQAKPSGKAPQVRAASAPAKESPRKGAAPAPPRKTGPAAAQVQVGKQEEDSRSSSEESDSDREALAAMNAAQVKPLGKSPQVKPASTMGMGPLGKGAGPVPPGKVGPATPSAQVGKWEEDSESSSEESSDSSDGEVPTAVAPAQEKSLGNILQAKPTSSPAKGPPQKAGPVAVQVKAEKPMDNSESSEESSDSADSEEAPAAMTAAQAKPALKIPQTKACPKKTNTTASAKVAPVRVGTQAPRKAGTATSPAGSSPAVAGGTQRPAEDSSSSEESDSEEEKTGLAVTVGQAKSVGKGLQVKAASVPVKGSLGQGTAPVLPGKTGPTVTQVKAEKQEDSESSEEESDSEEAAASPAQVKTSVKKTQAKANPAAARAPSAKGTISAPGKVVTAAAQAKQRSPSKVKPPVRNPQNSTVLARGPASVPSVGKAVATAAQAQTGPEEDSGSSEEESDSEEEAETLAQVKPSGKTHQIRAALAPAKESPRKGAAPTPPGKTGPSAAQAGKQDDSGSSSEESDSDGEAPAAVTSAQVIKPPLIFVDPNRSPAGPAATPAQAQAASTPRKARASESTARSSSSESEDEDVIPATQCLTPGIRTNVVTMPTAHPRIAPKASMAGASSSKESSRISDGKKQEGPATQVSKKNPASLPLTQAALKVLAQKASEAQPPVARTQPSSGVDSAVGTLPATSPQSTSVQAKGTNKLRKPKLPEVQQATKAPESSDDSEDSSDSSSGSEEDGEGPQGAKSAHTLGPTPSRTETLVEETAAESSEDDVVAPSQSLLSGYMTPGLTPANSQASKATPKLDSSPSVSSTLAAKDDPDGKQEAKPQQAAGMLSPKTGGKEAASGTTPQKSRKPKKGAGNPQASTLALQSNITQCLLGQPWPLNEAQVQASVVKVLTELLEQERKKVVDTTKESSRKGWESRKRKLSGDQPAARTPRSKKKKKLGAGEGGEASVSPEKTSTTSKGKAKRDKASGDVKEKKGKGSLGSQGAKDEPEEELQKGMGTVEGGDQSNPKSKKEKKKSDKRKKDKEKKEKKKKAKKASTKDSESPSQKKKKKKKKTAEQTV | 0.67 | 3.27
−0.10 | 0.37 | 0.13 | TCERG1 (protein, UniProt O14776 1-1098, looked up) Transcription elongation …: MAERGGDGGESERFNPGELRMAQQQALRFRGPAPPPNAVMRGPPPLMRPPPPFGMMRGPPPPPRPPFGRPPFDPNMPPMPPPGGIPPPMGPPHLQRPPFMPPPMSSMPPPPGMMFPPGMPPVTAPGTPALPPTEEIWVENKTPDGKVYYYNARTRESAWTKPDGVKVIQQSELTPMLAAQAQVQAQAQAQAQAQAQAQAQAQAQAQAQAQAQAQAQAQAQAQAQAQAQAQAQAQAQAQAQAQVQAQVQAQVQAQAVGASTPTTSSPAPAVSTSTSSSTPSSTTSTTTTATSVAQTVSTPTTQDQTPSSAVSVATPTVSVSTPAPTATPVQTVPQPHPQTLPPAVPHSVPQPTTAIPAFPPVMVPPFRVPLPGMPIPLPGVAMMQIVSCPYVKTVATTKTGVLPGMAPPIVPMIHPQVAIAASPATLAGATAVSEWTEYKTADGKTYYYNNRTLESTWEKPQELKEKEKLEEKIKEPIKEPSEEPLPMETEEEDPKEEPIKEIKEEPKEEEMTEEEKAAQKAKPVATAPIPGTPWCVVWTGDERVFFYNPTTRLSMWDRPDDLIGRADVDKIIQEPPHKKGMEELKKLRHPTPTMLSIQKWQFSMSAIKEEQELMEEINEDEPVKAKKRKRDDNKDIDSEKEAAMEAEIKAARERAIVPLEARMKQFKDMLLERGVSAFSTWEKELHKIVFDPRYLLLNPKERKQVFDQYVKTRAEEERREKKNKIMQAKEDFKKMMEEAKFNPRATFSEFAAKHAKDSRFKAIEKMKDREALFNEFVAAARKKEKEDSKTRGEKIKSDFFELLSNHHLDSQSRWSKVKDKVESDPRYKAVDSSSMREDLFKQYIEKIAKNLDSEKEKELERQARIEASLREREREVQKARSEQTKEIDREREQHKREEAIQNFKALLSDMVRSSDVSWSDTRRTLRKDHRWESGSLLEREEKEKLFNEHIEALTKKKREHFRQLLDETSAITLTSTWKEVKKIIKEDPRCIKFSSSDRKKQREFEEYIRDKYITAKADFRTLLKETKFITYRSKKLIQESDQHLKDVEKILQNDKRYLVLDCVPEERRKLIVAYVDDLDRRGPPPPPTASEPTRRSTK | 2.34 | 3.64
